Assay: soluble on expression in E. coli; label from the status in PepcDB or PDB records

Row | Sequence | soluble on expression in E. coli
1 | QKLVQLILDEIVEGGAKVEWTDIAGQDVAKQALQEMVILPSVRPELFTGLRAPAKGLLLFGPPGNGKTLLARAVATECSATFLNISAASLTSKYVGDGEKLVRALFAVARHMQPSIIFIDEVDSLLSERSSSEHEASRRLKTEFLVEFDGLPGNPDGDRIVVLAATNRPQELDEAALRRFTKRVYVSLPDEQTRELLLNRLLQKQGSPLDTEALRRLAKITDGYSGSDLTALAKDAALEPIRELNVEQVKCLDISAMRAITEQDFHSSLKRIRRSVAPQSLNSYEKWSQDYGDITIK | soluble
2 | QKVTLVKKKQETVSIDAGIDRMRRAVRLLDRAEWVEVIDSVRTNKADLLSAYNLIADNGRLEWVKGNQGEATSFVNGRGDHAIMTEKGEDGVYSLHEAHRIGGKWGNAIPLEKLNSRFNENYPSLRADGFTLLFASDRPDGIGGYDLYMTRRDLEDGIFLEPTLLGMPFNSPYNDYLLVYDELRGIGFFASDRFCPADVVTVYTFVINEEGRPVATDDMALKRAYASLKSIRATQDPERDYSRLIASARDNRTDAEKKASERQIYFPMQGMRIYTRWSDFQSSEAKSLYQDVMARKRKLEQAATRLEELRLLYGRASALERSGMKQEILRLENAIPPLEEEVGRMEKEVRNMELQAVQGF | not soluble
3 | QLIFDDCVFAFSGPVHEDAYDRSALETVVQDHGGLVLDTGLRPLFNDPFKSKQKKLRHLKPQKRSKSWNQAFVVSDTFSRKVKYLEALAFNIPCVHPQFIKQCLKMNRVVDFSPYLLASGYSHRLDCTLSQRIEPFDTTDSLYDRLLARKGPLFGKKILFIIPEAKSWQKKIENTEQGQKALAHVYHALALGADVEIRPNVAHLECDLILTMDGNIVDETNCPVVDPEWIVECLISQSDIST | soluble
4 | QQEYMKVGKFSPESNRSRWLVTRGATMTTKDTTRNMTMNTNLGGYQVLEIFRKLETPEAVTAFEGLSIPEPGLEPRFCVREGEQEVPVTTRYTDEAFWQVFDFSFVAGKHYTEADARSNIAVAVITDRLARRFFGSSSEAVGRQALINGRKYTVCGVVRHVTPFCDFAYGDVWMPVFRLYEERVKNNLFSRFNVICLAKSPKDFDAIKEEVGALTAKCNSVQEKFNISFPGQPADQFTTMHRKFHRDDTEPLEYRRR | not soluble
5 | QRRQMEMQSVNLVHEALSNQRLELFAQRVMNLQSPESLMYFEILVRIRDAQGNYVSPAIFIPASERYNIAHWIDKQVINQALEWFEQRPDVVEKLGRCSINLSGQSMGNQEFIDFLFERLKNSTMPCEKICLEITETAAMGNLDQAIDFFTRAKSLGCMIALDDFGSGLSSFGYLKKLPVDIVKIDGLFVRDIDVNEMDRVMVRSINDLAKQLGKVTVAEFVENEQVMQHLIDLGVDYGQGYGIGHPKPLAELVENLSSL | not soluble
6 | QRSTFGTKHMVFRTDQLIDGIERNVRITSEEVNAALPVPLLDRQDPGAILISGSSYTEPSEALQTMREAMTQEKFSGSVEIPLGIVRALLDLGFTDEAASWLEDLVPRLGNEWRHQWYSGVTSLLLDDYLTAQQHFNEVYNILPGESAPKLARAAVCEMLLQEKGLESTALLDPAVTVAAADIKGEGMSNIWRELTSDPATLRFKAIYLYALVWRTNPTTVSSAFGLARQLAAENQIDLAVSTLDRVPQNSTHRRMAELTAILHLLGDLSEARLRRAARRLEAIPTNEPRFLQIQIAIMNAALQWLRTGGEAANDPIFEYPFTQRGLRNGLSATLRQLARSAPSSHRYALVDVANQVRPMTWF | not soluble
7 | QTPVYLDTSKPIEERVKDALSRMTLEEKVKMTHAQSKFSSPGVPRLGIPEVWATDGPHGIRPEVLWDEWDQAGWTNDSCIAYPALTCLSATWNPEMSYLYGKSIGEEARYRKKDILLGPGVNIYRTPLNGRNFEYMGEDPYLSSMMVVPYIKGVQENGVAACVKHYALNNQEFNRHTTNVHLSDRALYEIYLPAFKAAVQEGGAWAIMGAYNLYSFSEDTDSGKLYKTQHACHNKRLLQDILRKEWGFDGVVVSDWGGVHDTFQAISNGLDMEFGSWTNGLSAGTRNAYDNYYLAHPYLKLIQDGTVGTKELDEKVSNILRLIFRTSMNPH | not soluble
8 | QTSGFSVTSGPMDVDVVTSIPFAMVDEINESSPAAEGGLQLGDQVLKFGNVEGGDNLLQRLAAEAQSNQGQAVSVQVMRQ | soluble
